# According to US20240392024A1 (SHANGHAI CELGEN BIO PHARMACEUTICAL, published 2024):
# Where a chain is given by its changes, count along the chain named. Several values for one entry are separate records, joined by “and”; a condition that tells them apart may be missing. Identical values can stand only once.
# B1: 11G2huVH2 + huVL2(P07267) (antibody, V domains shown)
# VH: QVQLVQSGAEVKKPGASVKVSCKASGYTFITYDINWVRQAPGQGLEWIGWIYPRDGNTQFNENFKGRVTMTTDTSTSTAYMELRSLRSDDTAVYYCARGDRDYGYFDVWGQGTTVTVSS
# VL: DIQMTQSPSSLSASVGDRVTITCRASQDISNYLNWYQQKPGKAPKLLIYFKSKLHSGVPSRFSGSGSGTDFTLTISSLQPEDFATYYCQQGNTLPLTFGGGTKLEIK
# notes: Humanized 11G2
# B2: 11G2huVH1 + huVL1(P07262) (antibody, V domains shown)
# VH: B1 VH with V20L, R67K, V68A, T72V, T74E, L83V
# VL: B1 VL with Q6P, P8T, P44V, I106L
# notes: Humanized 11G2
# B3: 11G2huVH2 + huVL1(P07263) (antibody, V domains shown)
# VH: B1 VH
# VL: B1 VL with Q6P, P8T, P44V, I106L
# notes: Humanized 11G2
# B4: 11G2huVH3 + huVL1(P07264) (antibody, V domains shown)
# VH: B1 VH with P41T, K65Q, T72R, D73N, T76I, R84S, D89E
# VL: B1 VL with Q6P, P8T, P44V, I106L
# notes: Humanized 11G2
# B5: 11G2huVH3 + huVL2(P07268) (antibody, V domains shown)
# VH: B1 VH with P41T, K65Q, T72R, D73N, T76I, R84S, D89E
# VL: B1 VL
# notes: Humanized 11G2
# B6: 11G2huVH4 + huVL1(P07265) (antibody, V domains shown)
# VH: B1 VH with F60Y, N61A, E62Q, N63K, K65Q
# VL: B1 VL with Q6P, P8T, P44V, I106L
# notes: Humanized 11G2
# B7: 11G2huVH5 + huVL1(P07266) (antibody, V domains shown)
# VH: QVQLVQSGAEVKKPGASVKVSCKASGYTFITYDINWVRQATGQGLEWIGWIYPRDGNTQYAQKFQGRVTMTRNTSISTAYMELSSLRSEDTAVYYCARGDRDYGYFDVWGQGTTVTVSS
# VL: B1 VL with Q6P, P8T, P44V, I106L
# notes: Humanized 11G2
# B8: anti-human TNFR2 mouse monoclonal antibody 13F5 (antibody, V domains shown)
# VH: QVQLQQSGAELVRPGTSVKMSCKASGYTFTNYWIGWTKQRPGHGLEWIGDIFPGGDFTNYNEKFKGKATLTADKSSSTAYLQFSSLTSEDSAIYYCSRRRFTTIVAPGFDYWGQGTTLTVSS
# VL: QLVLTQSSSASFSLGASAKLTCTLSSQHSMYTIEWYQQQPLKPPKFVMELKKDGSHSTGDGIPDRFSGSSSGADRYLNISNIQPEDEAIYICGVGDTIKEQFVYVFGGGTEVTVL
# B9: anti-human TNFR2 mouse monoclonal antibody 18A2 (antibody, V domains shown)
# VH: DVQLQESGPGLVKPSQSLSLTCSVTGYSITSGYYWNWIRQFPGNKLEWMGYISYDGSNNYNPSLKKRISITRDTSKNQFFLKLNSVTTEDTATYYCTGGSGTSWGQGTLVTVSA
# VL: DIVMTQSHKFMSTSVGDRVSITCKASQDVTTGIAWYQQKPGQSPKLLIYSASNRFTGVPDRFTGSGSGTDFTFTISSVQAEDLAVYFCQQHYSTPFTFGSGTKLEIQ
# notes: also called 18A12
# B10: 12E12-huVH7 + huVL2(P08938) (antibody, V domains shown)
# VH: QVQLVQSGAEVKKPGASVKVSCKASGYTITDFYIHWVRQAPGKGLEWMGRVDPEDGNTEYAQKFQGRVTMTTDTSTDTAYMELSSLRSEDTAVYYCSTWDGFSYFDYWGQGTTVTVSS
# VL: QAVVTQEPSLTVSPGGTVTLTCRSSTGPVTTNNYANWVQQKPGQAFRGLIGGTNDRAPGVPARFSGSLLGGKAALTLSGAQPEDEAEYYCALWYRNHWVFGGGTKLTVL
# notes: Humanized 12E12
# Target: T1, TNFR2-His (Sino Biological, 10417-H08H, NP_001057.1 Met1-Asp257, with multi-histidine tag expressed on … (human, UniProt P20333 23-257))
# T1 construct: range 1-257; Bought protein; also called recombinant human TNFR2 protein; TNFR2-His antigen; not shown: C-terminal multi-histidine tag
# T1 sequence (looked up): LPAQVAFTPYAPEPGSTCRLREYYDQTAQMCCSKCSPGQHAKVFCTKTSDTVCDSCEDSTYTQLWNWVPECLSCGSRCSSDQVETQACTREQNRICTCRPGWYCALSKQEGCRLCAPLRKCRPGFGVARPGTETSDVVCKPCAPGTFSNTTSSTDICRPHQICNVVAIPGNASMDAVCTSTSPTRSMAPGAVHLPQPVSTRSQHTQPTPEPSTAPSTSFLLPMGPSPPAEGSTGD
# Experiment: ELISA, coated TNFR2-His
# Outline: (§1)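 EC50 values come from antibody dilution series tested by ELISA. Plates were coated with recombinant human TNFR2 bearing a C-terminal His tag and blocked before the serially diluted antibodies were added. Binding was detected with an enzyme-labelled anti-IgG secondary antibody, TMB development and a microplate reader.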
row,Binder,EC50 [pM]
1,B1,282
2,B2,95
3,B3,336
4,B4,328
5,B5,271
6,B6,286
7,B7,94

# Target: T2, recombinant mouse TNFR2 (mTNFR2) (Sino Biological, 50128-M08H) (mouse, UniProt P25119 23-258)
# T2 sequence (looked up): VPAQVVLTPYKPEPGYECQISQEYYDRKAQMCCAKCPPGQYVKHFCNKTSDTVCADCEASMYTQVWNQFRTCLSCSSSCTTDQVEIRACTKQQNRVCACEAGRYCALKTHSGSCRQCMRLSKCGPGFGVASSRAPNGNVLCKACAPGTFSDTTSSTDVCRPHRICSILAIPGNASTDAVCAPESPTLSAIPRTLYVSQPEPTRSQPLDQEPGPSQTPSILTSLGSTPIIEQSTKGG
# Experiment: ELISA, coated mouse TNFR2
# Protocol: (§2) After TMB development, the detection was performed using microplate reader: dual wavelength 450 nm/655 nm detection, and results were calculated by OD₄₅₀-OD₆₅₅.
# (§3) Using the same method as above, the TNFR2 antigens of cynomolgus monkey and mouse (Sino Biological, 90102-C021 and 50128-M08H) were coated separately. The anti-human TNFR2 mouse monoclonal antibodies to be tested were gradient diluted, then added with the anti-mouse Fab segment secondary antibody (Jackson Immuno Research, 515-035-072), and TMB development was performed. ELISA was used to detect the binding of 8 strains of mouse monoclonal antibodies to recombinant mouse TNFR2 (mTNFR2) and cynomolgus monkey TNFR2 (Cyno. TNFR2).
row,Binder,binding result
1,B8,no binding

# Target: T3, recombinant human TNFR2 antigen (Kangdai, batch number A100114U) (human, UniProt P20333 23-257)
# T3 construct: also called hTNFR2; TNFR2-FC (Shanghai Saijin Biopharmaceutical Co., Ltd., Qiangke, catalog number A100114U); not shown: Fc part of the bought TNFR2-FC
# T3 sequence (looked up): T1 sequence (looked up)
# Experiment: ELISA, coated recombinant human TNFR2
# Protocol: as §2
row,Binder,EC50 [µg/mL]
1,B8,0.0638
2,B9,0.0465

# Target: T4, human TNFR2 on the cell membrane (human, UniProt P20333 23-461)
# T4 construct: whole, on cells; One molecule for all cell formats; also called TNFR2-CHO cells; CHO-TNFR2
# T4 sequence (looked up): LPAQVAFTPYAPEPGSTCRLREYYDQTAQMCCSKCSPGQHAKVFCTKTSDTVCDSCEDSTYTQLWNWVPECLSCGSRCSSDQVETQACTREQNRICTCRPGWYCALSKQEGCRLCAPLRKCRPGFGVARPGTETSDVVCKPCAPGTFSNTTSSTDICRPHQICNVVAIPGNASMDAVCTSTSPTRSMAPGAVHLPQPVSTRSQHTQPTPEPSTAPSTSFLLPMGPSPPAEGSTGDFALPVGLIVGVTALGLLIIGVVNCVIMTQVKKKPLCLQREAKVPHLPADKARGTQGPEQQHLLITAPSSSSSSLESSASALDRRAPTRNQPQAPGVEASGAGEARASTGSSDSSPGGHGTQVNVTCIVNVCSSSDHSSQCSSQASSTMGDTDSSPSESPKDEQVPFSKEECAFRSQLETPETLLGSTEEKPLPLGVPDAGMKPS
# Experiment: flow cytometry, CHO-TNFR2 cells; CHO-TNFR2 cells
# Outline: (§4)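 CHO cells were transfected with a pcDNA3.4 vector carrying human TNFR2, taken through drug selection and sorted as single clones to give a line that stably overexpresses the receptor. These cells were placed in 96-deep-well plates, incubated with serially diluted antibodies, washed and then stained with a fluorescent anti-IgG secondary antibody. Flow cytometry was run on a Beckman CytoFLEX, and EC50 values were derived from the dilution series.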
row,Binder,EC50 [pM]
1,B1,144
2,B2,6
3,B3,153
4,B4,184
5,B5,200
6,B6,171
7,B7,10

# Target: T4, human TNFR2 on the cell membrane
# Experiment: flow cytometry on CHO-TNFR2 cells
# Outline: as §4
row,Binder,EC50 [µg/mL]
1,B1,0.0214
2,B2,0.0009
3,B3,0.0229
4,B4,0.0275
5,B5,0.0299
6,B6,0.0256
7,B7,0.0014

# Target: T4, human TNFR2 on the cell membrane
# Experiment: flow cytometry on CHO-TNFR2 cells
# Remark: another data set of the same source
# Outline: as §4
row,Binder,EC50
1,B10,0.0587 µg/mL and 0.394 nM

# Target: T1, TNFR2-His (Sino Biological, 10417-H08H, …)
# Experiment: ELISA, plate coated with TNFR2-His
# Outline: as §1
row,Binder,EC50 [µg/mL]
1,B1,0.0421
2,B2,0.0141
3,B3,0.0502
4,B4,0.049
5,B5,0.0404
6,B6,0.0427
7,B7,0.014

# Target: T1, TNFR2-His (Sino Biological, 10417-H08H, …)
# Experiment: BLI, antibody captured on AHC probe, TNFR2 in solution
# Outline: (§5)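 Bio-layer interferometry on an Octet in Basic Kinetics mode. Antibodies at 50 nM in Q buffer (10 mM PBS pH 7.4, 0.02% Tween 20, 0.2% BSA) were held on antibody-capture sensors. The sensors were then placed in recombinant human TNFR2 diluted 2-fold in Q buffer from a top concentration of 100 nM. Kon, koff and Kd come from these kinetic association measurements.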
Binder,Kd [pM],koff [s⁻¹],kon [M⁻¹ s⁻¹]
B10,1700,0.00183,1.08e+06

# Target: T1, TNFR2-His (Sino Biological, 10417-H08H, …)
# Experiment: BLI, antibody captured on AHC probe, TNFR2-His in solution
# Outline: as §5
Binder,Kd [pM],koff [s⁻¹],kon [M⁻¹ s⁻¹]
B1,7300,0.00205,280000
B2,4790,0.00115,239000
B3,5960,0.00171,287000
B4,5100,0.00161,316000
B5,7280,0.0022,302000
B6,9760,0.00255,261000
B7,7290,0.00163,223000

# Target: T1, TNFR2-His (Sino Biological, 10417-H08H, …)
# Experiment: ELISA, plate coated with TNFR2-His (second test)
# Outline: as §1
row,Binder,EC50
1,B10,0.0262 µg/mL and 0.176 nM

# Target: T3, recombinant human TNFR2 antigen …
# Experiment: ELISA, plate coated with recombinant human TNFR2 antigen
# Protocol: as §2
row,Binder,EC50 [pM]
1,B8,428
2,B9,312

# Target: T5, recombinant cynomolgus monkey TNFR2 (Cyno. TNFR2) (Sino Biological, 90102-C021) (cynomolgus monkey, UniProt A0A2K5VET2 132-366)
# T5 sequence: T1 sequence (looked up) with S16G, S36P, P117Q, N164H, E210A, S216G, M223V
# Experiment: ELISA, plate coated with recombinant cynomolgus monkey TNFR2
# Protocol: as §2, §3
row,Binder,EC50
1,B8,> 1 µg/mL and > 6.7 nM
2,B9,> 1 µg/mL and > 6.7 nM
